From PMC2475716 (The Journal of Biological Chemistry, 2008) come the findings set out here.

B1: IPT Δ1 (domain or fragment, UniProt P08581 657-932, looked up)
chain: PVITSISPKYGPMAGGTLLTLTGNYLNSGNSRHISIGGKTCTLKSVSNSILECYTPAQTISTEFAVKLKIDLANRETSIFSYREDPIVYEIHPTKSFISGGSTITGVGKNLNSVSVPRMVINVHEAGRNFTVACQHRSNSEIICCTTPSLQQLNLQLPLKTKAFFMLDGILSKYFDLIYVHNPVFKPFEKPVMISMGNENVLEIKGNDIDPEAVKGEVLKVGNKSCENIHLHSEAVLCTVPNDLLKLNSELNIEWKQAISSTVLGKVIVQPDQNFT
B2: HGF NK1 (domain or fragment, UniProt P14210-1 32-205, looked up)
chain: QRKRRNTIHEFKKSAKTTLIKIDPALKIKTKKVNTADQCANRCTRNKGLPFTCKAFVFDKARKQCLWFPFNSMSSGVKKEFGHEFDLYENKDYIRNCIIGKGRSYKGTVSITKSGIKCQPWSSMIPHEHSFLPSSYRGKDLQENYCRNPRGEEGGPWCFTSNPEVRYEVCDIPQ
B3: PSI-IPT (domain or fragment, UniProt P08581 516-932, looked up)
chain: NGLGCRHFQSCSQCLSAPPFVQCGWCHDKCVRSEECLSGTWTQQICLPAIYKVFPNSAPLEGGTRLTICGWDFGFRRNNKFDLKKTRVLLGNESCTLTLSESTMNTLKCTVGPAMNKHFNMSIIISNGHGTTQYSTFSYVDPVITSISPKYGPMAGGTLLTLTGNYLNSGNSRHISIGGKTCTLKSVSNSILECYTPAQTISTEFAVKLKIDLANRETSIFSYREDPIVYEIHPTKSFISGGSTITGVGKNLNSVSVPRMVINVHEAGRNFTVACQHRSNSEIICCTTPSLQQLNLQLPLKTKAFFMLDGILSKYFDLIYVHNPVFKPFEKPVMISMGNENVLEIKGNDIDPEAVKGEVLKVGNKSCENIHLHSEAVLCTVPNDLLKLNSELNIEWKQAISSTVLGKVIVQPDQNFT
B4: HGF-α (domain or fragment, UniProt P14210 32-473, looked up)
chain: QRKRRNTIHEFKKSAKTTLIKIDPALKIKTKKVNTADQCANRCTRNKGLPFTCKAFVFDKARKQCLWFPFNSMSSGVKKEFGHEFDLYENKDYIRNCIIGKGRSYKGTVSITKSGIKCQPWSSMIPHEHSFLPSSYRGKDLQENYCRNPRGEEGGPWCFTSNPEVRYEVCDIPQCSEVECMTCNGESYRGLMDHTESGKICQRWDHQTPHRHKFLPERYPDKGFDDNYCRNPDGQPRPWCYTLDPHTRWEYCAIKTCADNTMNDTDVPLETTECIQGQGEGYRGTVNTIWNGIPCQRWDSQYPHEHDMTPENFKCKDLRENYCRNPDGSESPWCFTTDPNIRVGYCSQIPNCDMSHGQDCYRGNGKNYMGNLSQTRSGLTCSMWDKNMEDLHRHIFWEPDASKLNENYCRNPDDDAHGPWCYTGNPLIPWDYCPISRCEGDT

Among the targets are Decoy Met (UniProt P08581 25-932); IPT (UniProt P08581 563-932); active HGF (UniProt P14210 32-494; P14210 495-728).
Assay in all cases: ELISA
(In an ELISA, binding on a coated surface is turned into a signal by an enzyme label.)

The assay “HGF-α” addresses B4.

active HGF, sequence (P14210 495-728, one chain of several): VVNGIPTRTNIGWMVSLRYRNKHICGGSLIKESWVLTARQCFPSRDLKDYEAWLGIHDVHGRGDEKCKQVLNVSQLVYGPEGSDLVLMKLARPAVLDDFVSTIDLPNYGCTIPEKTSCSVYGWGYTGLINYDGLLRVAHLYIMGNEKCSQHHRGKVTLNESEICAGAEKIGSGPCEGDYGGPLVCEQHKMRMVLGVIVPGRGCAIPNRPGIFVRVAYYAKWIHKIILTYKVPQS

For the molecule B1, the binding result with HGF-α is on record as “binds”.
For B2, the “fold reduced affinity compared with active HGF” value with Decoy Met worked out at 10 fold. Further, the “fold less tightly than active HGF” value with IPT was 10 times.
For B3, the binding result with active HGF is listed as “binds”.
B4: the “fold reduced affinity compared with active HGF” value in the assay with Decoy Met stood at 4 fold.
